Measured values as given in patent US20230119254A1, “SYNERGISTIC AND TARGETING COMPOSITIONS FOR TREATMENT OF ARTERIAL AND VENOUS THROMBOSIS” (AstraZeneca AB, priority 2020, published 2023).

Assays:
[1] = system: human platelet-rich plasma (PRP); test: ADP-induced human platelet aggregation in platelet-rich plasma; assay type: cell-based; settings: ADP-activated, light transmission, 6 min
Experimental: FIGS. 1A and 1B show the effect of apyrase APT102 used as such and of a fusion protein thereof, APT402, on platelet aggregation in an ex vivo reaction mixture comprising human platelet-rich plasma (PRP) activated with 20 μM ADP. […] X axis is the assay time (6 min duration), Y axis is the light transmission. […] Arrows indicate addition of ADP and apyrases.
(§1) The inhibitory activity on FX activation was assayed using peripheral blood mononuclear cells (PBMC) purified from normal human donors and anesthetized rabbits by standard methods. […] As expected, APT102 had no effect on PBMC pro-coagulant activity.

[2] = system: peripheral blood mononuclear cells (PBMC) from normal human donors; test: LPS-induced Factor X activation in human PBMC; assay type: cell-based; settings: human PBMCs
Experimental: (§2) Peripheral blood mononuclear cells were incubated with LPS (1 mg/ml) to induce tissue factor expression and FX activation measured in the presence of FVII, FX and chromogenic substrate 52765.
as §1

[3] = system: thrombin generation in human platelet rich plasma; test: Thrombin generation by calibrated automated thrombography (CAT) in ADP-activated human PRP; assay type: cell-based; settings: 20 uM ADP-activated human platelets, equal molar concentrations
Experimental: Shown are thrombograms of nanomolar thrombin that were generated in human platelet rich plasma activated with […].
Thrombin generation in citrated human platelet rich plasma (PRP) was quantified by calibrated automated thrombography (CAT) using the Thrombinoscope system (Synapse), according to methods developed by Hemker et al. Aliquots of PRP were incubated with agents for 15 min at room temperature, and then for 5 min at 37° C. in wells of 96-well plates. Thrombin generation was initiated by addition of 0.5 pM tissue factor and CaCl2 to 16.7 mM and monitored in a microtiter plate fluorometer (Fluoroskan Ascent, Thermo Electron Corp., Vantaa, Finland). Thrombograms (nM thrombin generated vs. time) were generated using the Thrombinoscope software, as were key thrombin generation parameters: lag time to onset of thrombin generation (min), peak thrombin concentration (nM), time to peak thrombin (min), and endogenous thrombin potential (ETP; integrated area under the thrombogram curve).
The effects of APT102, annexin V, APT102+annexin V, and APT402 at equal molar concentrations on thrombin generation from 20 uM ADP-activated human platelets were compared using CAT assays (FIG. 3). […] These features were mimicked by APT402.

[4] = system: peripheral blood mononuclear cells (PBMC) from anesthetized rabbits; test: LPS-induced Factor X activation in rabbit PBMC; assay type: cell-based; settings: rabbit PBMCs
Experimental: as §2, §1

[5] = system: IVC fibrosis (collagen deposition); test: Chronic murine electrolytic injury model (EIM) of DVT, fibrosis; assay type: in vivo; settings: mice, 1.0 mg/kg ip bolus daily for 14 days
From the text: In a chronic fibrotic study, mice were randomized and blinded into the following groups (n=5-12/group).
Collagen deposition was stained with Masson's trichrome 14 days post DVT induction.

B1: APT102: soluble apyrase, enhanced form of soluble CD39L3 R67G T69R (SEQ ID NO: 2) (protein)
chain: EVLPPGLKYGIVLDAGSSGTRVYVYQWPAEKENNTGVVSQTFKCSVKGSGISSYGNNPQDVPRAFEECMQKVKGQVPSHLHGSTPIHLGATAGMRLLRLQNETAANEVLESIQSYFKSQPFDFRGAQIISGQEEGVYGWITANYLMGNFLEKNLWHMWVHPHGVETTGALDLGGASTQISFVAGEKMDLNTSDIMQVSLYGYVYTLYTHSFQCYGRNEAEKKFLAMLLQNSPTKNHLTNPCYPRDYSISFTMGHVFDSLCTVDQRPESYNPNDVITFEGTGDPSLCKEKVASIFDFKACHDQETCSFDGVYQPKIKGPFVAFAGFYYTASALNLSGSFSLDTFNSSTWNFCSQNWSQLPLLLPKFDEVYARSYCFSANYIYHLFVNGYKFTEETWPQIHFEKEVGNSSIAWSLGYMLSLTNQIPAESPLIRLPIEPPV
Which “inhibition of ADP-induced human platelet aggregation” value [1] does the source give for B1 here?
Its value is “dose-dependently inhibits”.

And the “reduction in LPS-induced FX activation” value [2]?
Its value is “no effect”.

What about the peak thrombin concentration [3] of the same molecule?
Its peak thrombin concentration is “modest inhibitory effect”.

What about the “time to peak thrombin” value [3] of the same molecule?
Its value is “modest inhibitory effect”.

What about the “reduction in LPS-induced FX activation” value [4] of the same molecule?
The value was “no effect”.

And the “deaths, increased bleeding or gross side effects” value [5]?
The value was “no deaths or increased bleeding or gross side effects”.

And the “reduction of collagen deposition” value ([5]; Masson's trichrome 14 days post DVT induction)?
Its value is 11%.
